Results: patent US20260035459A1, “HUMANIZED CHIMERIC ANTIGEN RECEPTORS TARGETING THE B-CELL RECEPTOR OF CHRONIC LYMPHOCYTIC LEUKEMIA AND USES THEREOF” (AVA LIFESCIENCE GMBH, priority 2022, published 2026)
Numbering of substitutions follows the chain as printed. Each block holds one molecule with its values, some of them ahead of it.

Assays:
[1] = biological target: T1, IGHV3-21/IGLV3-21^R110 BCR (Homo sapiens, UniProt P80748); assay: FACS binding assay on BCR-expressing TKO cells; details: fluorescently labeled anti-mouse IgG
T1 construct: a complete light chain (LC) DNA covering IGLV3-21^R110 were synthesized; expressed in transfected cells; host or cells: murine triple knockout (TKO) pro-/pre-B cells, retroviral spinfection
T1 sequence (P80748 with tags, fused parts or gaps V22E/Q35K/G42A/V66I/D68Y/S112G): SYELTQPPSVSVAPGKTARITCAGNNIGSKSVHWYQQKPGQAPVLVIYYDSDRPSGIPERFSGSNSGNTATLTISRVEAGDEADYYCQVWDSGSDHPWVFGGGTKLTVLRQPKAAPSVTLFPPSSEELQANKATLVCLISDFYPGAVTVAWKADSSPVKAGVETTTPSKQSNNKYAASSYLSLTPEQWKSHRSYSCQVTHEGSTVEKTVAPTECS
Description: (§1) The screening for positive clones was not performed by enzyme linked immunosorbent assay (ELISA) as usual. Since the target structure is a membrane-bound receptor, it is of central importance to validate the binding of the potential antibodies in a cellular system, i.e. while largely preserving the cell physiological states native to this cell type. First, groups of pooled supernatants were examined for binding events using fluorescence activated cell sorting (FACS) analysis. For this purpose different BCR variants were expressed on the surface of a triple knockout (TKO) cell line, which cannot express BCR itself.
(§2) For reconstitution with a ‘BCR of interest’, the corresponding sequence coding for the VH was fused with a human IgM constant segment by polymerase chain reaction (PCR), and heavy (HC) and light (LC) chains were cloned into respective expression vectors each having a CMV promoter. These were introduced into the packaging cell line (Phoenix cell line) by lipofection. After 36 hours of incubation, the virus supernatant was removed and used for spinfection of the TKO cells. BCR expression was determined using anti-IgM and anti-LC antibodies on FACS. For this purpose, some cells were taken and stained with 5 μl antibody each in a total volume of 100 μl in PBS. Both the work to extract the supernatants and the spinfection of the TKO are widely known procedures and known to experts. […]

[2] = system: wild-type IGLV3-21G110-variant; assay: FACS binding assay on BCR-expressing TKO cells (germline control); set-up: species or system human; details: fluorescently labeled anti-mouse IgG
Chain of wild-type IGLV3-21G110-variant (as listed by the source): as the sequence (P80748 with tags, fused parts or gaps V22E/Q35K/G42A/V66I/D68Y/S112G) above, with R110G counted along it
Chain of wild-type IGLV3-21G110-variant (P01871 with tags, fused parts or gaps partner): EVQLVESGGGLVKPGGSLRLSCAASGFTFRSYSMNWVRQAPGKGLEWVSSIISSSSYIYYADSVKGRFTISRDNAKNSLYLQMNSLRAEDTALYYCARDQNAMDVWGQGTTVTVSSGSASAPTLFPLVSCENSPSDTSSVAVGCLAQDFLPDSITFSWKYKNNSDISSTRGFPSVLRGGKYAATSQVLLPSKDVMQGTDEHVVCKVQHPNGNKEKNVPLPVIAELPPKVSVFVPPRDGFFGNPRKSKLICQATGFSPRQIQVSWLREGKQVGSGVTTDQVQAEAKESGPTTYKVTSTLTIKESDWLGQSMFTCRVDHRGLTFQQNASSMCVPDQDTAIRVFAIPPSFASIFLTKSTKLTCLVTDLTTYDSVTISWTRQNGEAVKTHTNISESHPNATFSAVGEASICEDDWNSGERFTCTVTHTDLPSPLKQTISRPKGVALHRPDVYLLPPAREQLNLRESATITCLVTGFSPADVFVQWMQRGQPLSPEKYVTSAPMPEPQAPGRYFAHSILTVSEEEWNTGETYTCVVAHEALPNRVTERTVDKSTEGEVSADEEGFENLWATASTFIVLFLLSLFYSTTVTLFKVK
Chain of wild-type IGLV3-21G110-variant (P11911 29-220 partner): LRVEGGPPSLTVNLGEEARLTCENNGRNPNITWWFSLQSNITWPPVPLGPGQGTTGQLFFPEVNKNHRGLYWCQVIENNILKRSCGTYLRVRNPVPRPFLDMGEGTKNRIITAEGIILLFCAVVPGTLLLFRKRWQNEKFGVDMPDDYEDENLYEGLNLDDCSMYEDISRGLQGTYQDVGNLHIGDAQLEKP
Chain of wild-type IGLV3-21G110-variant (P15530 26-228 partner): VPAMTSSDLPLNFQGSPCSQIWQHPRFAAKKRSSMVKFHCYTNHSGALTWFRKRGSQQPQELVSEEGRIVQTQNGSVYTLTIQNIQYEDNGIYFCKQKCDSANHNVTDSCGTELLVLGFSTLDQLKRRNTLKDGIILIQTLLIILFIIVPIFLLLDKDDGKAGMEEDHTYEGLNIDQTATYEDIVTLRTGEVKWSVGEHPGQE
Description: as §1, §2

[3] = system: OCI-LY1 R110 cell line (OCIR110); assay: In-vitro cytotoxicity assay (IncuCyte Caspase-3/7), OCI-LY1 R110; assay type: cell-based, human; details: construct 1: IgG4 hinge spacer; construct 2: additional CH2-CH3 spacer
Protocol: Neoepitope (i.e. cancer-specific peptide) engineered cell line OCI-LY1 R110 expressing the IGLV3-21^R110 light chain as part of a BCR with induced R110 point mutation was generated from OCI-LY1 wt cells. First, OCI-LY1 wt cells were cultivated in RPMI 1640 Medium, GlutaMAX™ Supplement (Thermo Fisher, Cat. 61870044) supplemented with 20% (v/v) FBS (Life Technologies, Cat. 10500064) and 1% (v/v) penicillin-streptomycin (10,000 U/mL) (Thermo Fisher, Cat. 15140122) at 37° C. in a humidified atmosphere including 5% CO2. […]
Target cells seeded at 2×10^4 cells/well in a 96-well plate were co-incubated with effector cells at effector-to-target (E: T) ratio 5:1 in complete CTL medium consisting of RPMI 1640 Medium GlutaMAX™ Supplement (Thermo Fisher, Cat. 61870044) supplemented with 10% (v/v) FBS (Life Technologies, Cat. 10500064), 1% (v/v) penicillin-streptomycin (10,000 U/mL) (Thermo Fisher, Cat. 15140122), 50 μM β-mercaptoethanol (Thermo Fisher, Cat. 31350010) and 50 U/mL IL-2 (StemCell, Cat. 78036.1). CAR T cell mediated tumor cell killing was assessed using the IncuCyte@ Caspase-3/7 Green Reagent for Apoptosis (Sartorius, Cat. 4440) according to the manufacturer's instructions. Read out of dead (-green-fluorescent) target cells was performed on an
IncuCyte@ S3 (Sartorius) after 2 to 16 hours or 4 to 36 hours. The killing graphs were calculated by the IncuCyte@ software (version 2022A). […]

binding to IGLV3-21^R110-BCRs [1]: high specificity and cross-reactivity
B1: mAb01-01: murine monoclonal anti-IGLV3-21^R110 antibody, VL SEQ ID NO: 44, VH SEQ ID NO: 45 (antibody, listed as Mus musculus, V domains shown)
VH: QVQLQQSGPGLVQPSQSLSITCTVSGFSLTSYGIHWVRQSPGKGLEWLGVIWRGGGTDSNAAFMSRLSITKDNSKSQVFFKMNSLQADDTAIYYCARSRYDEEESMNYWGQGTSVTVSS
VL: QIVLTQSPASLSASVGETVTITCRASGNIHSYLAWYQQKQGKSPQLLVYNAKTLADGVPSRFSGSGSGTQYSLKINSLQPEDFGSYYCQHFWNTPPTFGAGTKLELK
binding to wild-type IGLV3-21G110-variant [2]: without any detectable binding

B2: H1: humanized anti-IGLV3-21^R110 CAR, VL SEQ ID NO: 7, VH SEQ ID NO: 11, scFv SEQ ID NO: 13 (protein)
scFv: EIVLTQSPSSLSASVGDSVTITCRASGNIHSYLAWYQQKPGKAPKLLIYNAKTLADGVPSRFSGSGSGTQYTLTISSLQPEDFATYYCQHFWNTPPTFGAGTKLELKGGGGSGGGGSGGGGSGGGGSQVQLQESGPGLVKPSETLSLTCTVSGFSLTSYGIHWIRQSPGRGLEWIGVIWRGGGTDSNAAFMSRVTISVDTSKSQVSLKLGSVTAADTAIYYCARSRYDEEESMNYWGQGTSVTVSS
killing capacity, CAR construct 1 versus CAR construct 2 [3]: remarkably higher in CAR construct 1 than in CAR construct 2

B3: H2: humanized anti-IGLV3-21^R110 CAR, VL SEQ ID NO: 7, VH SEQ ID NO: 12, scFv SEQ ID NO: 14 (protein)
scFv: B2 scFv with V194I, V198R, S203T
killing capacity, CAR construct 1 versus CAR construct 2 [3]: remarkably higher in CAR construct 1 than in CAR construct 2
